Laboratory results reported in US11390653B2, “Amino acid-specific binder and selectively identifying an amino acid” (priority 2018, dated 2022).

Legend:
Format in all cases: binding
F1G2 peptide [1] = assay: yeast/peptide colorimetric pull-down assay; conditions: yeast-displayed protein
Protocol: (§1) Incubation and wash steps were repeated.

[2] = target: T1, full panel of 20 peptides containing different NAAs (Agrobacterium fabrum, UniProt Q8UD95); assay: yeast/peptide colorimetric pull-down assay, full panel
T1 construct: factor Xa cleavage site (N); expressed in transfected cells; host or cells: Saccharomyces cerevisiae EBY100, pCTCON2
Protocol: as §1

His NAA peptide [3] = target: T2, His NAA peptide (Agrobacterium fabrum, UniProt Q8UD95); assay: yeast/peptide colorimetric pull-down assay; parameters: factor Xa cleavage site (N); expressed in transfected cells; host or cells: Saccharomyces cerevisiae EBY100, pCTCON2; conditions: high concentrations used in the assay
Protocol: as §1

Arg NAA peptide [4] = target: T3, Arg NAA peptide (Agrobacterium fabrum, UniProt Q8UD95); assay: yeast/peptide colorimetric pull-down assay; parameters: factor Xa cleavage site (N); expressed in transfected cells; host or cells: Saccharomyces cerevisiae EBY100, pCTCON2; conditions: high concentrations used in the assay
Protocol: as §1

W1G2 peptide = conditions: for KOFF Trp: from SPR dissociation curves; for Selectivity for Trp, Trp/Phe / Selectivity for Trp, Trp/Trp / Selectivity for Trp, Trp/Tyr: relative specificity factor, ratio of binding affinities; for Kd: steady state, peptide on surface, 0 to 50 μM protein, read-out: KD Trp
Protocol: (§2) With regard to surface plasmon resonance (SPR), SPR data was collected by loading a streptavidin chip with the target biotinylated peptides in each of the four channels, and then flowing the protein over the chip at each concentration for 180 seconds before washing with 50 mM Tris-HCl, pH 8.0, 300 mM NaCl, 1 mM DTT, 5% glycerol buffer for 180 seconds. […] The four channels were used such that the negative control peptide (A1G2) was in channel 1, F1G2 in channel 2, W1G2 in channel 3, and Y1G2 in channel 4. The negative control peptide channel was used as a baseline for subtraction, which accommodates both any non-specific binding and refractive index change. A steady state response at each concentration was plotted and fit to calculate the KD, while the resonance units vs. time was used to calculate a koff for each mutant protein with each peptide.
(§3) Regarding characterization of the ClpS mutant protein binding kinetics, for peptide sequencing via some recently proposed methods reagents can bind peptides affixed to a surface. Two A. tumefaciens ClpS2 protein variants (V2, described above, and V1) were expressed and purified from E. coli. […] The binding properties of each variant were analyzed using surface plasmon resonance (SPR).

Met NAA peptide = target: T4, Met NAA peptide (Agrobacterium fabrum, UniProt Q8UD95); assay: yeast/peptide colorimetric pull-down assay; conditions: high concentrations used in the assay
T4 construct: factor Xa cleavage site (N); expressed in transfected cells; host or cells: Saccharomyces cerevisiae EBY100, pCTCON2
Protocol: as §1

Ile NAA peptide = target: T5, Ile NAA peptide (Agrobacterium fabrum, UniProt Q8UD95); assay: yeast/peptide colorimetric pull-down assay
T5 construct: factor Xa cleavage site (N); expressed in transfected cells; host or cells: Saccharomyces cerevisiae EBY100, pCTCON2
Protocol: as §1

Val NAA peptide = target: T6, Val NAA peptide (Agrobacterium fabrum, UniProt Q8UD95); assay: yeast/peptide colorimetric pull-down assay
T6 construct: factor Xa cleavage site (N); expressed in transfected cells; host or cells: Saccharomyces cerevisiae EBY100, pCTCON2
Protocol: as §1

Lys NAA peptide = target: T7, Lys NAA peptide (Agrobacterium fabrum, UniProt Q8UD95); assay: yeast/peptide colorimetric pull-down assay; conditions: high concentrations used in the assay
T7 construct: factor Xa cleavage site (N); expressed in transfected cells; host or cells: Saccharomyces cerevisiae EBY100, pCTCON2
Protocol: as §1

Leu NAA peptide = assay: yeast/peptide colorimetric pull-down assay; conditions: yeast-displayed protein
Protocol: as §1

Ala NAA peptide = target: T8, Ala NAA peptide (Agrobacterium fabrum, UniProt Q8UD95); assay: yeast/peptide colorimetric pull-down assay
T8 construct: factor Xa cleavage site (N); expressed in transfected cells; host or cells: Saccharomyces cerevisiae EBY100, pCTCON2
Protocol: as §1

Y1G2 peptide = assay: SPR, peptide on streptavidin chip, ClpS2 variant protein in solution; conditions: for KOFF Tyr: from SPR dissociation curves; for Selectivity for Tyr, Tyr/Phe / Selectivity for Tyr, Tyr/Trp / Selectivity for Tyr, Tyr/Tyr: relative specificity factor, ratio of binding affinities; for Kd: steady state, peptide on surface, 0 to 50 μM protein, read-out: KD Tyr
Protocol: as §2, §3

F1G2 peptide [5] = assay: as above; conditions: for specificity between N-terminal Phe and Trp, in words: from SPR binding data; for KOFF Phe: from SPR dissociation curves; for Selectivity for Phe, Phe/Phe / Selectivity for Phe, Phe/Trp / Selectivity for Phe, Phe/Tyr: relative specificity factor, ratio of binding affinities; for Kd: steady state, peptide on surface, 0 to 50 μM protein, read-out: KD Phe
Protocol: as §2, §3

His NAA peptide [6] = target: T2, His NAA peptide; assay: flow cytometry of yeast displaying ClpS proteins; parameters: factor Xa cleavage site (N); expressed in transfected cells
Protocol: (§4) After two rounds of MACs selection, the library was sorted by flow cytometry. […] A typical reaction contained 100 μL of cells (containing approximately 10^6 cells), 10 μL of peptide at a concentration between 10 nM to 10 μM, and 25 μL of a master mix containing 2 μL of an anti-myc antibody, 4 μL of the SAPE (streptavidin, R-phycoerythrin conjugate—1 mg/mL) and 19 μL of PBS/BSA for each sample.
(§5) Cells were washed with PBS/BSA and sorted using a FACS Aria cytometer and collected in 1 mL of SD-CAA media. The number of cells that bound the peptide improved with each round and were sorted with sequentially lower concentrations of peptide to increase the stringency of the selection. […]
(§6) With regard to directed evolution of ClpS, random mutagenesis and screening was used to select proteins with higher affinity binding to the target NAA. In subsequent steps, specific residues were determined from initial screens with a targeted mutagenesis step. […] Using FACS, we assessed the affinity of each mutant for the N-terminal amino acid on the target peptide based on which quadrant the fluorescent signal fell into as shown in FIG. 15. […] If there is also a high fluorescence signal along the x-axis (streptavidin-PE) then the peptide is presumably bound to the protein variant, and the signal will appear in Q2. […]

Arg NAA peptide [7] = target: T3, Arg NAA peptide; assay: flow cytometry of yeast displaying ClpS proteins; parameters: factor Xa cleavage site (N); expressed in transfected cells
Protocol: as §4, §5, §6

Row | Molecule | KOFF Trp (W1G2 peptide) | Selectivity for Trp, Trp/Phe (W1G2 peptide) | Selectivity for Trp, Trp/Trp (W1G2 peptide) | Selectivity for Trp, Trp/Tyr (W1G2 peptide) | Kd (W1G2 peptide) | KOFF Tyr (Y1G2 peptide) | Selectivity for Tyr, Tyr/Phe (Y1G2 peptide) | Selectivity for Tyr, Tyr/Trp (Y1G2 peptide) | Selectivity for Tyr, Tyr/Tyr (Y1G2 peptide) | Kd (Y1G2 peptide) | specificity between N-terminal Phe and Trp, in words (F1G2 peptide [5]) | KOFF Phe (F1G2 peptide [5]) | Selectivity for Phe, Phe/Phe (F1G2 peptide [5]) | Selectivity for Phe, Phe/Trp (F1G2 peptide [5]) | Selectivity for Phe, Phe/Tyr (F1G2 peptide [5]) | Kd (F1G2 peptide [5]) | also measured
1 | A. tumefaciens ClpS2 [Variant V3, A. tumefaciens ClpS2 [Cys34 Ser35 Trp36]] |  |  |  |  |  |  |  |  |  |  |  |  |  |  |  |  | affinity for F1G2 peptide compared to wild-type (F1G2 peptide [1]): increased affinity; selectivity towards F1G2 peptide compared to other NAAs (F1G2 peptide [1]): higher selectivity
2 | A. tumefaciens ClpS2 [Pro34 Arg35 Glu36] (protein, wild-type Agrobacterium tumefaciens ClpS2, N-End Rule Pathway adaptor protein) MGHHHHHHENLYFQGSDSPVDLKPKPKVKPKLERPKLYKVMLLNDDYTPREFVTVVLKAVFRMSEDTGRRVMMTAHRFGSAVVVVCERDIAETKAKEATDLGKEAGFPLMFTTEPEE | 1.32 s⁻¹ | 1.42 | 1.0 | 0.29 | 18.4 ± 0.4 µM | 1.16 s⁻¹ | 4.86 | 3.43 | 1.0 | 63 ± 4 µM | modest specificity for N-terminal Phe | 0.93 s⁻¹ | 1.0 | 0.71 | 0.21 | 13 ± 0.6 µM | binding to the remaining amino acids [2]: non-binding; binding to His (His NAA peptide [3]): some binding activity; binding to Arg (Arg NAA peptide [4]): some binding activity; binding to Met (Met NAA peptide): some binding activity; binding to Ile (Ile NAA peptide): does bind; binding to Val (Val NAA peptide): lack of binding; binding to Lys (Lys NAA peptide): some binding activity; binding to Leu (Leu NAA peptide): does not bind; binding to Ala (Ala NAA peptide): lack of binding; binding to His (His NAA peptide [6]): confirmed; binding to Arg (Arg NAA peptide [7]): confirmed
3 | A. tumefaciens ClpS2 [Pro34 Met35 Ser36] (protein, listed as Escherichia coli, ClpS2 variant, native residues 34-36 ProArgGlu mutated to ProMetSer) SDSPVDLKPKPKVKPKLERPKLYKVMLLNDDYTPMSFVTVVLKAVFRMSEDTGRRVMMTAHRFGSAVVVVCERDIAETKAKEATDLGKEAGFPLMFTTEPEE | 0.76 s⁻¹ | 7.28 | 1.0 | 1.13 | 13.1 ± 1.3 µM | 0.5 s⁻¹ | 6.43 | 0.88 | 1.0 | 11.6 ± 1.2 µM | more specific for N-terminal Trp than for Phe | 0.1 s⁻¹ | 1.0 | 0.14 | 0.16 | 1.8 ± 0.4 µM | affinity for N-terminal Trp relative to wild-type, in words (W1G2 peptide; in vitro surface binding assays / SPR): little change; improvement in affinity for Y1G2 compared to wild-type (Y1G2 peptide; SPR): 5.5 fold; dissociation rate slowed over wild-type, Phe (F1G2 peptide [5]; SPR): 9.4 fold; improvement in KD/affinity for Phe peptide compared to wild-type (F1G2 peptide [5]; SPR): 7.2 fold; improvement in KD/affinity for Phe peptide compared to wild-type (F1G2 peptide [5]; SPR, listed as ProMetSer variant): 7 fold
